From paper PMC3159460 come the findings set out here.

One may read the Kd as the concentration at which binding is half-saturated. A low value points to tighter binding.

Series [1] has as its target T1, Sso7c4 (Saccharolobus (Sulfolobus) solfataricus …, UniProt P81552 2-56).
T1 sequence: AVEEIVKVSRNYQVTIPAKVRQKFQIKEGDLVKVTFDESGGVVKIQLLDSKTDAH
Briefly: SPR.

Series [2] deals with T1, Sso7c4. Description: NMR 1H-15N HSQC titration.
Series [3] addresses T1, Sso7c4. Description: NMR 1D 1H titration of DNA.

B1: 8-mer duplex (SPR, biotinylated) (dsDNA)
DNA 1: CGCTATAGCG
DNA 2: CGCTATAGCG
As for B1, binding in series [1] was characterised by a dissociation constant (Kd) of 10.1 µM.

B2: 16-mer duplex (SPR, biotinylated) (dsDNA)
DNA 1: CGCGTACGCGTACGCG
DNA 2: CGCGTACGCGTACGCG
On to B2, for which the Kd in series [1] stood at 1.54 µM.

B3: 16-mer duplex (NMR) (dsDNA)
DNA 1: CGCGTACGCGTACGCGTA
DNA 2: TACGCGTACGCGTACGCG
For B3, the binding result in series [2] is given as “binds”.

B4: 12-mer duplex (dsDNA)
DNA 1: CAATCCGGATTG
DNA 2: CAATCCGGATTG
As for B4, in series [3], the binding result is given as “binds”.
